Data as given in US20250312416A1, “METHOD AND PHARMACEUTICAL COMPOSITION FOR CARTILAGE REGENERATION” (FAR EASTERN MEMORIAL HOSPITAL, priority 2024, published 2025).

Assays:
[1] = tested on: tibial articular cartilage of WT mice after ACLT; experiment: ACLT-induced OA mouse model, Safranin O / collagen II staining and OARSI score (CXCL14 protein); format: in vivo; details: for OARSI score: ACLT group 5.5, sham group 0.17
[2] = tested on: IPFP-MSC from OA patients; experiment: Alcian blue staining of chondrogenic pellets (GAG), IPFP-MSC; format: cell-based, human; details: IPFP-MSC during chondrogenesis, day 3
Method: (§1) The GSE140861 microarray database was used for analyzing the potential genes from human bone marrow cells at different time points during chondrogenesis. Whole-genome expression analysis was carried out using Illumina (CA) Human Ref-8v3 or Human HT-12 v4 BeadArrays™. It was first selected the secreted protein from this database and further verified the functions of the candidate genes. The numbers of significant differences in gene expressions of different time points from human bone marrow stem cells during chondrogenesis. […] Alcian blue staining analyzed the chondrogenic differentiation of pellets with varying ratios of IPFP-MSC. CXCL14 increased the GAG deposition in IPFP-MSC during chondrogenesis on day 3. FIG. 1C provides the fluorescence confocal microscopy images showing IPFP-MSC spheroids from OA patients treated with CXCL14 for 7 days; wherein the nuclei were stained with DAPI (blue), and merged images display SOX9 (red), type II collagen (green), and aggrecan (light blue) labeling. […] The chondrogenic progenitor cells in the human IPFP-MSC from OA patients were detected using SOX9 and Collagen type II biomarkers. MSCs were assessed by flow cytometry for SOX9 and Collagen type II biomarkers indicative of human MSCs on day 1. In addition, Alcian blue staining analyzed the chondrogenic differentiation of pellets with IPFP-MSC. […]

[3] = tested on: IPFP-MSC spheroids from OA patients; experiment: Fluorescence confocal microscopy of IPFP-MSC spheroids (SOX9, type II collagen, aggrecan); format: cell-based, human; details: MSC spheroids during chondrogenesis, 7 days
Method: as §1

ADSC spheroids = experiment: Immunofluorescence / confocal microscopy of chondrogenic proteins in ADSC spheroids; format: cell-based, human; details: ADSC spheroids, 7 days
Method: Both side views (observed in the x and z plane) and bottom views (observed in the […]) of the images are provided. The scale bar is set at 500 μm.
ADSCs were treated with CXCL14-P, CXCL14-P1, or CXCL14-P2, respectively, at a concentration of 10 ng for 24 hours, after which the medium was replaced with fresh peptide-free medium. On day 7, total RNA was extracted, and real-time PCR analysis was performed to assess the expression levels of key chondrogenic markers, including ACAN, COL2A1, SOX9, and COMP. Gene expression levels were quantified using a LightCycler system (Roche Applied Science), with fold changes calculated relative to untreated control ADSCs. […] Immunofluorescence staining was performed to detect Collagen Type II, SOX9, COMP, and nuclei (Hoechst 33342) in 3D ADSC spheroids (middle panel).
(FIG. 3). […] Moreover, fluorescence confocal microscopy was employed to detect protein patterns and confirm the levels of SOX9, type II collagen, and aggrecan proteins in ADSC spheroids. […] Finally, to investigate whether the CXCR4 receptor of CXCL12/CXCL14 confers chondrogenic signaling during chondrogenesis, we treated ADSCs with a CXCR4 agonist for 7 days.
Extracellular vesicles (EVs) derived from MSCs hold significant potential for repairing damaged tissues. In this study, we explored whether EVs from ADSCs could effectively enhance chondrogenesis and promote cartilage repair. Immunofluorescence staining was used to assess protein levels of Collagen Type II (green), SOX9 (red), COMP (indigo), and Hoechst 33342 (gray) in 3D ADSC spheroids treated with MSC-EVs derived from CXCL14 peptide-primed ADSCs (CXCL14-P-MSC-EVs) at various time points. […] To further explore the cartilage repair functions of EVs from CXCL14-P-treated ADSCs and the encapsulation of the transcription factor SOX9 within MSCs and purified EVs, we performed in vivo studies.

B1: CXCL14: small cytokine belonging to the CXC chemokine family, also known as BRAK; used as recombinant protein (protein, UniProt O95715 35-111, looked up)
C-X-C motif chemokine 14: SKCKCSRKGPKIRYSDVKKLEMKPKYPHCEEKMVIITTKSVSRYRGQEHCLHPKLQSTKRFIKWYNAWNEKRRVYEE
OARSI score ([1]; CXCL14 10 ng): 2.7 | OARSI score ([1]; CXCL14 20 ng): 1 | cartilage repair (staining GAG content and type II collagen) ([1]; dose-dependent, ACLT-induced OA): can stimulate cartilage repair | GAG deposition (Alcian blue) [2]: increased | levels of SOX9, type II collagen, and aggrecan [3]: elevated levels | expression of SOX9, type II collagen, and aggrecan (ADSC spheroids): notably induced
